Assay results as given in US20260242735A1 (UNIVERSIT T BASEL, published 2026).

Legend:
human CD33 L275A = human CD33 L275A (human, UniProt P20138 18-364); test: flow cytometry, HEK293-T, alanine scan;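 also: transiently transfected HEK293-T cells expressing single alanine mutants of human CD33 (alanine residues changed to serine), antibody binding fluorescence minus background, relative to wild type CD33, mean of duplicates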
Description: (§1) An alanine scan on human CD33 was performed to the determine the residues on CD33 that are involved in binding to the antibodies investigated. […] Briefly, a mutation library of CD33 was created by high-throughput, site-directed mutagenesis. Each residue was individually mutated to alanine, with alanine codons mutated to serine. The mutant library was arrayed in 384-well microplates and transiently transfected into HEK293-T. Following transfection, cells were incubated with the indicated antibodies (IgG or Fab) at concentrations pre-determined using an independent immunofluorescence titration curve on wild type CD33. […] Binding of each antibody to each mutant clone was determined in duplicates. For each point, background fluorescence was subtracted from the raw data, which were then normalized to antibody reactivity with wild type CD33.
(§2) Critical residues for antibody binding (outlined in dark grey) were residues whose mutations led to a binding of the test Abs of less than 20%. Additional secondary residues (outlined in light grey) were identified that led to a binding of the test Abs of between 20 and 40% as compared to the wild type CD33.

human CD33 C276A = human CD33 C276A (human, UniProt P20138 18-364); test: flow cytometry, HEK293-T, alanine scan;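 also: transiently transfected HEK293-T cells expressing single alanine mutants of human CD33 (alanine residues changed to serine), antibody binding fluorescence minus background, relative to wild type CD33, mean of duplicates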
Description: as §1, §2

human CD33 L277A = human CD33 L277A (human, UniProt P20138 18-364); test: flow cytometry, HEK293-T, alanine scan;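 also: transiently transfected HEK293-T cells expressing single alanine mutants of human CD33 (alanine residues changed to serine), antibody binding fluorescence minus background, relative to wild type CD33, mean of duplicates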
human CD33 L277A, sequence (P20138 18-364 L277A limits assumed): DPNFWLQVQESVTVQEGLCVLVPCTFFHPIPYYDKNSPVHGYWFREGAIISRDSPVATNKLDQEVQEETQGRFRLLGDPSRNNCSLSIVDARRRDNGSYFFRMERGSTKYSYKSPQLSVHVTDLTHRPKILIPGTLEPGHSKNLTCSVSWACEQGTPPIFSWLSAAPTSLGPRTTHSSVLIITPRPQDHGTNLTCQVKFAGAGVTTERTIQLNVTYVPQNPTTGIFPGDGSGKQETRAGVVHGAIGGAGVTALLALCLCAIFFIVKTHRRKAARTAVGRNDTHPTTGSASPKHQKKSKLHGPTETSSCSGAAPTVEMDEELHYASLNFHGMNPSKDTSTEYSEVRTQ
Description: as §1, §2

human CD33 I278A = human CD33 I278A (human, UniProt P20138 18-364); test: flow cytometry, HEK293-T, alanine scan;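 also: transiently transfected HEK293-T cells expressing single alanine mutants of human CD33 (alanine residues changed to serine), antibody binding fluorescence minus background, relative to wild type CD33, mean of duplicates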
Description: as §1, §2

human CD33 I281A = human CD33 I281A (human, UniProt P20138 18-364); test: flow cytometry, HEK293-T, alanine scan
Description: as §1, §2

human CD33 H285A = human CD33 H285A (human, UniProt P20138 18-364); test: flow cytometry, HEK293-T, alanine scan
Description: as §1, §2

human CD33 A290S = human CD33 A290S (human, UniProt P20138 18-364); test: flow cytometry, HEK293-T, alanine scan
Description: as §1, §2

human CD33 R291A = human CD33 R291A (human, UniProt P20138 18-364); test: flow cytometry, HEK293-T, alanine scan
Description: as §1, §2

human CD33 T292A = human CD33 T292A (human, UniProt P20138 18-364); test: flow cytometry, HEK293-T, alanine scan
Description: as §1, §2

human CD33 A293S = human CD33 A293S (human, UniProt P20138 18-364); test: flow cytometry, HEK293-T, alanine scan
Description: as §1, §2

human CD33 R296A = human CD33 R296A (human, UniProt P20138 18-364); test: flow cytometry, HEK293-T, alanine scan
human CD33 R296A, sequence (P20138 18-364 R296A limits assumed): as the sequence (P20138 18-364 L277A limits assumed) above, with A260L, R279A counted along it
Description: as §1, §2

human CD33 T303A = human CD33 T303A (human, UniProt P20138 18-364); test: flow cytometry, HEK293-T, alanine scan
Description: as §1, §2

human CD33 S307A = human CD33 S307A (human, UniProt P20138 18-364); test: flow cytometry, HEK293-T, alanine scan
human CD33 S307A, sequence (P20138 18-364 S307A limits assumed): as the sequence (P20138 18-364 L277A limits assumed) above, with A260L, S290A counted along it
Description: as §1, §2

human CD33 K312A = human CD33 K312A (human, UniProt P20138 18-364); test: flow cytometry, HEK293-T, alanine scan
Description: as §1, §2

human CD33 K313A = human CD33 K313A (human, UniProt P20138 18-364); test: flow cytometry, HEK293-T, alanine scan
human CD33 K313A, sequence (P20138 18-364 K313A limits assumed): as the sequence (P20138 18-364 L277A limits assumed) above, with A260L, K296A counted along it
Description: as §1, §2

human CD33 K315A = human CD33 K315A (human, UniProt P20138 18-364); test: flow cytometry, HEK293-T, alanine scan
Description: as §1, §2

human CD33 L316A = human CD33 L316A (human, UniProt P20138 18-364); test: flow cytometry, HEK293-T, alanine scan
human CD33 L316A, sequence (P20138 18-364 L316A limits assumed): as the sequence (P20138 18-364 L277A limits assumed) above, with A260L, L299A counted along it
Description: as §1, §2

human CD33 H317A = human CD33 H317A (human, UniProt P20138 18-364); test: flow cytometry, HEK293-T, alanine scan
human CD33 H317A, sequence (P20138 18-364 H317A limits assumed): as the sequence (P20138 18-364 L277A limits assumed) above, with A260L, H300A counted along it
Description: as §1, §2

human CD33 P319A = human CD33 P319A (human, UniProt P20138 18-364); test: flow cytometry, HEK293-T, alanine scan
Description: as §1, §2

human CD33 E321A = human CD33 E321A (human, UniProt P20138 18-364); test: flow cytometry, HEK293-T, alanine scan
Description: as §1, §2

human CD33 S324A = human CD33 S324A (human, UniProt P20138 18-364); test: flow cytometry, HEK293-T, alanine scan
human CD33 S324A, sequence (P20138 18-364 S324A limits assumed): as the sequence (P20138 18-364 L277A limits assumed) above, with A260L, S307A counted along it
Description: as §1, §2

human CD33 S326A = human CD33 S326A (human, UniProt P20138 18-364); test: flow cytometry, HEK293-T, alanine scan
Description: as §1, §2

human CD33 G327A = human CD33 G327A (human, UniProt P20138 18-364); test: flow cytometry, HEK293-T, alanine scan
Description: as §1, §2

human CD33 E333A = human CD33 E333A (human, UniProt P20138 18-364); test: flow cytometry, HEK293-T, alanine scan
human CD33 E333A, sequence (P20138 18-364 E333A limits assumed): as the sequence (P20138 18-364 L277A limits assumed) above, with A260L, E316A counted along it
Description: as §1, §2

human CD33 M334A = human CD33 M334A (human, UniProt P20138 18-364); test: flow cytometry, HEK293-T, alanine scan
Description: as §1, §2

human CD33 A272S = human CD33 A272S (human, UniProt P20138 18-364); test: flow cytometry, HEK293-T, alanine scan
Description: as §1, §2

human CD33 H339A = human CD33 H339A (human, UniProt P20138 18-364); test: flow cytometry, HEK293-T, alanine scan
human CD33 H339A, sequence (P20138 18-364 H339A limits assumed): as the sequence (P20138 18-364 L277A limits assumed) above, with A260L, H322A counted along it
Description: as §1, §2

human CD33 S342A = human CD33 S342A (human, UniProt P20138 18-364); test: flow cytometry, HEK293-T, alanine scan
Description: as §1, §2

human CD33 L343A = human CD33 L343A (human, UniProt P20138 18-364); test: flow cytometry, HEK293-T, alanine scan
human CD33 L343A, sequence (P20138 18-364 L343A limits assumed): as the sequence (P20138 18-364 L277A limits assumed) above, with A260L, L326A counted along it
Description: as §1, §2

human CD33 F345A = human CD33 F345A (human, UniProt P20138 18-364); test: flow cytometry, HEK293-T, alanine scan
human CD33 F345A, sequence (P20138 18-364 F345A limits assumed): as the sequence (P20138 18-364 L277A limits assumed) above, with A260L, F328A counted along it
Description: as §1, §2

human CD33 N20G = human CD33 N20G (human, UniProt P20138 18-364); test: flow cytometry, HEK293-T, IgG;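 also: CD33 point mutants transiently expressed, antibody binding measured by fluorescence in duplicate, background subtracted and scaled to binding on wild-type CD33 as 100%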
Description: as §1
(§3) Antibodies were screened for binding to the human CD33 variants in IgG format. […] For each mutation, background fluorescence was subtracted from the raw data, which were then normalized to antibody reactivity with wild-type CD33.

human CD33 F21V = human CD33 F21V (human, UniProt P20138 18-364); test: flow cytometry, HEK293-T, IgG;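 also: CD33 point mutants transiently expressed, antibody binding measured by fluorescence in duplicate, background subtracted and scaled to binding on wild-type CD33 as 100%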
human CD33 F21V, sequence (P20138 18-364 F21V limits assumed): as the sequence (P20138 18-364 L277A limits assumed) above, with F4V, A260L counted along it
Description: as §1, §3

human CD33 W22S = human CD33 W22S (human, UniProt P20138 18-364); test: flow cytometry, HEK293-T, IgG;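 also: CD33 point mutants transiently expressed, antibody binding measured by fluorescence in duplicate, background subtracted and scaled to binding on wild-type CD33 as 100%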
Description: as §1, §3

human CD33 W22R = human CD33 W22R (human, UniProt P20138 18-364); test: flow cytometry, HEK293-T, IgG;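 also: CD33 point mutants transiently expressed, antibody binding measured by fluorescence in duplicate, background subtracted and scaled to binding on wild-type CD33 as 100%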
human CD33 W22R, sequence (P20138 18-364 W22R limits assumed): as the sequence (P20138 18-364 L277A limits assumed) above, with W5R, A260L counted along it
Description: as §1, §3

human CD33 Q24H = human CD33 Q24H (human, UniProt P20138 18-364); test: flow cytometry, HEK293-T, IgG
Description: as §1, §3

human CD33 Q24R = human CD33 Q24R (human, UniProt P20138 18-364); test: flow cytometry, HEK293-T, IgG
human CD33 Q24R, sequence (P20138 18-364 Q24R limits assumed): as the sequence (P20138 18-364 L277A limits assumed) above, with Q7R, A260L counted along it
Description: as §1, §3

Binder	Mean % WT Binding (human CD33 L275A) [% WT binding]	Mean % WT Binding (human CD33 C276A) [% WT binding]	Mean % WT Binding (human CD33 L277A) [% WT binding]	Mean % WT Binding (human CD33 I278A) [% WT binding]	Mean % WT Binding (human CD33 I281A) [% WT binding]	Mean % WT Binding (human CD33 H285A) [% WT binding]	Mean % WT Binding (human CD33 A290S) [% WT binding]	Mean % WT Binding (human CD33 R291A) [% WT binding]	Mean % WT Binding (human CD33 T292A) [% WT binding]	Mean % WT Binding (human CD33 A293S) [% WT binding]	Mean % WT Binding (human CD33 R296A) [% WT binding]	Mean % WT Binding (human CD33 T303A) [% WT binding]	Mean % WT Binding (human CD33 S307A) [% WT binding]	Mean % WT Binding (human CD33 K312A) [% WT binding]	Mean % WT Binding (human CD33 K313A) [% WT binding]	Mean % WT Binding (human CD33 K315A) [% WT binding]	Mean % WT Binding (human CD33 L316A) [% WT binding]	Mean % WT Binding (human CD33 H317A) [% WT binding]	Mean % WT Binding (human CD33 P319A) [% WT binding]	Mean % WT Binding (human CD33 E321A) [% WT binding]	also measured
Refmab #5 (antibody, V domains shown, The alanine scan used IgG or Fab) VH: QVQLVQSGAEVKKPGASVKVSCKASGYTFTNYDINWVRQAPGQGLEWIGWIYPGDGSTKYNEKFKAKATLTADTSTSTAYMELRSLRSDDTAVYYCASGYEDAMDYWGQGTTVTVSS VL: DIQMTQSPSSLSASVGDRVTINCKASQDINSYLSWFQQKPGKAPKTLIYRANRLVDGVPSRFSGSGSGQDYTLTISSLQPEDFATYYCLQYDEFPLTFGGGTKVEIK	86.4	95.4	89	100	115	116	118	103	85.1	87.7	99.5	82.4	83	94.7	118	112	79.5	71.9	70	96.2	Mean % WT Binding (human CD33 S324A): 96.6 % WT binding; Mean % WT Binding (human CD33 S326A): 107 % WT binding; Mean % WT Binding (human CD33 G327A): 98.7 % WT binding; Mean % WT Binding (human CD33 E333A): 121 % WT binding; Mean % WT Binding (human CD33 M334A): 99.4 % WT binding; Mean % WT Binding (human CD33 A272S): 110 % WT binding; Mean % WT Binding (human CD33 H339A): 82.7 % WT binding; Mean % WT Binding (human CD33 S342A): 101 % WT binding; Mean % WT Binding (human CD33 L343A): 77.8 % WT binding; Mean % WT Binding (human CD33 F345A): 86.4 % WT binding
Refmab #5 (antibody, human IgG1, V domains shown, tested in IgG format) VH: QVQLVQSGAEVKKPGASVKVSCKASGYTFTNYDINWVRQAPGQGLEWIGWIYPGDGSTKYNEKFKAKATLTADTSTSTAYMELRSLRSDDTAVYYCASGYEDAMDYWGQGTTVTVSS VL: DIQMTQSPSSLSASVGDRVTINCKASQDINSYLSWFQQKPGKAPKTLIYRANRLVDGVPSRFSGSGSGQDYTLTISSLQPEDFATYYCLQYDEFPLTFGGGTKVEIK																					Mean % WT Binding (human CD33 N20G): 96.9 % WT binding; Mean % WT Binding (human CD33 F21V): 104 % WT binding; Mean % WT Binding (human CD33 W22S): 89.7 % WT binding; Mean % WT Binding (human CD33 W22R): 104 % WT binding; Mean % WT Binding (human CD33 Q24H): 104 % WT binding; Mean % WT Binding (human CD33 Q24R): 102 % WT binding
Refmab #6 (antibody, V domains shown, The alanine scan used IgG or Fab) VH: QVQLQQPGAEVVKPGASVKMSCKASGYTFTSYYIHWIKQTPGQGLEWVGVIYPGNDDISYNQKFQGKATLTADKSSTTAYMQLSSLTSEDSAVYYCAREVRLRYFDVWGQGTTVTVSS VL: EIVLTQSPGSLAVSPGERVTMSCKSSQSVFFSSSQKNYLAWYQQIPGQSPRLLIYWASTRESGVPDRFTGSGSGTDFTLTISSVQPEDLAIYYCHQYLSSRTFGQGTKLEIK	94.6	100	104	108	104	103	108	104	113	101	102	95.5	116	94.5	102	99.2	90.5	95.2	85.2	111	Mean % WT Binding (human CD33 S324A): 97.1 % WT binding; Mean % WT Binding (human CD33 S326A): 88.8 % WT binding; Mean % WT Binding (human CD33 G327A): 92.1 % WT binding; Mean % WT Binding (human CD33 E333A): 98.7 % WT binding; Mean % WT Binding (human CD33 M334A): 107 % WT binding; Mean % WT Binding (human CD33 A272S): 90.9 % WT binding; Mean % WT Binding (human CD33 H339A): 99.3 % WT binding; Mean % WT Binding (human CD33 S342A): 102 % WT binding; Mean % WT Binding (human CD33 L343A): 101 % WT binding; Mean % WT Binding (human CD33 F345A): 98.4 % WT binding
Refmab #6 (antibody, human IgG1, V domains shown, tested in IgG format) VH: QVQLQQPGAEVVKPGASVKMSCKASGYTFTSYYIHWIKQTPGQGLEWVGVIYPGNDDISYNQKFQGKATLTADKSSTTAYMQLSSLTSEDSAVYYCAREVRLRYFDVWGQGTTVTVSS VL: EIVLTQSPGSLAVSPGERVTMSCKSSQSVFFSSSQKNYLAWYQQIPGQSPRLLIYWASTRESGVPDRFTGSGSGTDFTLTISSVQPEDLAIYYCHQYLSSRTFGQGTKLEIK																					Mean % WT Binding (human CD33 N20G): 101 % WT binding; Mean % WT Binding (human CD33 F21V): 118 % WT binding; Mean % WT Binding (human CD33 W22S): 6.7 % WT binding; Mean % WT Binding (human CD33 W22R): 1.3 % WT binding; Mean % WT Binding (human CD33 Q24H): 100 % WT binding; Mean % WT Binding (human CD33 Q24R): 86.2 % WT binding
